From the DeepSol protein solubility set

Experiment: soluble on expression in E. coli; label from the status in PepcDB or PDB records

Sequence	soluble on expression in E. coli
MAHHHHHHMPSMSASRQAPKVSATARATKFSTIRKLPTAEHSTSPVAAAPTSSEEPSRLALISFDVDATIDTVNLLHEEQHRVSEEDATDKRIGRYHYAQLVARLNEQRSLYQSTAMFVETMLKEVNHSTEASVAMKASAATWGLKLLAKHAGHGAINAVLESLLPALYCEYNPKKLCSAPPAVQLQVRRPDVIMDNPYFTHSMFVDEVQVDKRSATKLQKSLEAALRANDQRRSIVCHLIERRRQQQLEVTFRCWRHHVRQQHLLRMMGDNTAKQRAEEMSRLRVQTVFYHWKLLVERSRSTYLTERLHEAAFQLENAKNQFQLQCYRADRLVKTAKEATEEMERVSQINKGLQRQVDELKEEQVRKEREYKEKLTRNVTQVLKLLETYDSLARVLLHSKQADEYVMPEKPLLARHSQSGDGGQEASENEASRLR	not soluble
MGSDKIHHHHHHMSSEQIIASLKELVATPENPGKVLTDPADLDNYGKDWTKIYPPKPLAIVLPKTTEQVQALVKFANENQVALVPSGGRTGLSAGAVAANGEVVVAFDNMNQILDFNASDRTVRCQAGVVTEQLQTFAEENGLYYPVDFASAGSSQLGGNLSTNAGGIKVIRWGMSRDWVAGLKVVTGKGDVLDLNKDLAKNNTGYDLRHLFIGAEGTLGFITEATMKLTRKPDDLTVLVLGLNDLTNTMDVLQAFQKKLDLTAYEFFSHQAMGHVLAHGQVQAPFETEAPYYALLEFEAVSDQVMDDAMALFEQCVEEGWVLDGVISQSETQAQNLWQLRERISESIAPRIPYKNDISVVVSKVPGFLQEIDNVVTEHYPDFEIIWFGHIGDGNLHLNILKPEDMAKEDFFEKCQQVNKWVFEIVERYQGSVSAEHGVGMTKKPYLQYTRSEAEIAYLRGIKQVFDPNNIMNPGKIFD	not soluble
MGHHHHHHSHNFHYGAGHPMKPHRLALTHSLVLHYGLYKKMIVFKPYQASQHDMCRFHSEDYIDFLQRVSPTNMQGFTKSLNAFNVGDDCPVFPGLFEFCSRYTGASLQGATQLNNKICDIAINWAGGLHHAKKFEASGFCYVNDIVIGILELLKYHPRVLYIDIDIHHGDGVQEAFYLTDRVMTVSFHKYGNYFFPGTGDMYEVGAESGRYYCLNVPLRDGIDDQSYKHLFQPVINQVVDFYQPTCIVLQCGADSLGCDRLGCFNLSIRGHGECVEYVKSFNIPLLVLGGGGYTVRNVARCWTYETSLLVEEAISEELPYSEYFEYFAPDFTLHPDVSTRIENQNSRQYLDQIRQTIFENLKMLNHAPSVQIHDVPADLLTYDRTD	not soluble
MAHHHHHHMLSGAEELISDLFRRTSTTSNAVEFILSSNSAAYHDVMQRICNSNQPQLVKGILRTAQSLLPTELFQVFGKSVVPVLLLFAPAVLRRVGELLAAPKETPLSTCGEWDAFTSFITGIHCKLLASPECRATNVRSLPPPPVAARHTPSWSKVFHGEENVSEGVPPPQPSTDCEVNVTAIGTDNYGSLLCTIVCGLSHLLACVATPPCVIGGPGLTTLCNEVMRLLSSTPVFCYASKDANLQIACVSLLLSVLNLGKAVQGCVASSFMPTMRRWFDLTLYSANAVCIQLLFPYILHARAHR	not soluble
MGHHHHHHSHPPTAPDRATAVATASRLGPYVLLEPEEGGRAYQALHCPTGTEYTCKVYPVQEALAVLEPYARLPPHKHVARPTEVLAGTQLLYAFFTRTHGDMHSLVRSRHRIPEPEAAVLFRQMATALAHCHQHGLVLRDLKLCRFVFADRERKKLVLENLEDSCVLTGPDDSLWDKHACPAYVGPEILSSRASYSGKAADVWSLGVALFTMLAGHYPFQDSEPVLLFGKIRRGAYALPAGLSAPARCLVRCLLRREPAERLTATGILLHPWLRQDPMPLAPTRSHLWEAAQVVPDGLGLDEARE	not soluble
MINAKVHVAVPTAFYADESLNISATLAHAQYLLDHQIESVMLCGSTGEQHSLDLDEKIALARAVDRAEWPQGAEIIFGVSAIRQSHAVRLAQVVAQCERIDAILVGFPPYIRPTQDQARRFVTAITQTAGKPAIIYNNPARTGFDASASTLAQLCMLPDVIGVKDPGGAPKLAEVSREIAPFRARYYAGGELDLHAKVAHGYTYLSSIVGNIAPEETVAWFNALRHGEEYESSSRLQELIDQLFAHHPIQFLKEKISTQEGINMGSCRLPLGPIAD	not soluble
MAAKQGESDPERKETRQKVDDDRKHEIEAAIVRIMKSRKKMQHNVLVAEVTQQLKARFLPSPVVIKKRIEGLIEREYLARTPEDRKVYTYVA	soluble
MMIVKRFILGEYSTNTYLVVSGDEGILIDVAENPSEVIDYILTNNIKLKSIYATHGHFDHVLGVTEVKKYFNVPFFLHRSDLDLLRRDERTKGIVPDGFIDEKSIIKIGNEELKVIETPGHTMGSVCYIFDDGIFTGDTLFNGSIGRYDLGGDKNLLKKSLNRLMELNDGLTVYPGHGFFTTLGYEKLTNPFLNGEFEW	soluble
MSLSDAFLSSIKNRRTIYALDKQLPVSQEKIVELVKEAVSHSPSAFNSQSSRVVVLFGAEHEQFWNIAKDELKKIVPADAFAATETKLNSFAAGAGTVLFFEDQTVVRQLQEQFALYADNFPVWSEQASGMAQFAVWTALAEHKVGASLQHYNPLVDAQTHKTWNLPESWKLRAQMPFGAIAAPAGEKAFIAESERFKVFGNEGGSHHHHHH	soluble
MAHHHHHHMTAHHALLLGSLVDDVDLSVRRGAQADTLTVDGAADRLLSAIASYTKSAAATDVDVEDNGEAAQETAALSLMAHMQRLSLLCNAARTPETSCTSAGEDNIHKCVDDWAKWLLGLESKPIVLASKVALCLPPLQACWRGGSALDGAGSAHIDRIEEAIGSFFAHAARRCVTEWTTHGAPLRTLLPPLALLTTYARFRWAWSRFTELRHVGGGEHLGEAEGGIAVVGSSDTVQRQENRDIDFLGIAGEVESCHAAKLTREVLLHSLKTIDWRVGSAVPAVKEVAPLFWCVFLRCRSYALHSCSQCRSSSSDFFAHEASARLVAQVLRCTVDGVRLCIERQAADMHVARARQLCTCDIPCLVLLTRLWFSWIALATDAAAVLLPRLERSLRQLVSSVVKLRGGAETKPPPSSVAAALAENSAEASWTEQETLFVEVAWKVAPLSMSEIASATAAVPWTSEFVRASEVQAVLEKRTLVAPVP	not soluble
MDAVQDPAAGSLSRSRIVPPQVPAEYSLRPAIRNLLDRNPHSRVLMFSAPAGFGKTCALAALARERTVADQAVAWLSLAEEDDDPARFCRQLIEALGEAVPQLGDDAQTYLQNTMRVPVVAVIESLLGDLDRYARPLLLVLDDLHLVSNPDIFTGLNRLVQYAPPGLVLALGTRSQPALSLATWRAKGLLLEIGLEELRLGFEETREYLERSGLYLDEPCLKALYGQTEGWVVGVHLVSLWLRQQPQVQEMALLDGDKQAVSAYLLAAVFERLPGDLQEALLALGVASQLSGDLANALTGRQ	not soluble
MPNAGELASLMEENAMPKVVVRNFAISLDGYGAGPDQSLQNPLGVKGEELHQWAFKTRTFHRMFGKEGGSTGTDENFSEKSFENIGAWVLGRNMFGPVRGAWPDESWKGWWGEEPPYHVPVFVLTHHARPSFTMKGGTEFHFVTDGIEAALDRALTAANGKDVRIGGGVSTIRQYMAAGMIDELHLALAPVFLGKGEQLFEGLDLPALGYRCTGTVAGEGATHLIIEKV	not soluble
MKSYPDPYRHFENLDSAETQNFAAEANAETRARFLENDKARALSDGILAQLQDTRQIPFCQEHRARMYHFHQDAEYPKGVYRVCTAATYRSGYPEWKILFSVADFDELLGDDVYLGGVSHLVEQPNRALLTLSKLGSDTAYTLEVDLEAGELVEGGFHFPAGKNHVSWRDENSVWVCPAWNERQLTQSGYPREVWLVERGKSFEESLPVYQIGEDGMMVNAWRYLDPQGSPIDLIEASDGFYTKTYLRVSAEGEAKPLNLPNDCDVVGYLAGHLLLTLRKDWN	not soluble
MGSDKIHHHHHHMTTSTNERTTRAELQDAPRVARLHPQPDYRISVGGRDLSRLFAPRLVSLSISESRSDEADTIDIVLDDSKNDLDIPKRGATIKASIGWAGEPLVDKGSFVVNEVEHSGAPDIITIRARSAAMTSGMQERREKSWHRQTIGSIVHAIAGRYSLSPTVGDALAKILIAHIDQTHESDMSFLTRLAKRYDAVMNVKDLRLLFMPIGTGQTATGKKLDVLELTRASGDSHRYHVSERENYAAVRAHYHSTGRAKRKSVIVGGENNKNVKVLPEDYATEAEARAAAQAEFKRMQRSQATMSYTLARGRAELFPEMPVTVSGFKPEIDETPWLVKKATHTIGDVGFTTALELEMRDDPTTERHRSHFQGSR	not soluble
MGSDKIHHHHHHMNTYHPFSLTTPSTLMIQDWAQTNQNNKEVIAGFTTKNGGVSQKPFESLNTGLHVHDKDADVVKNREYIADMFNTDLQSWVFADQTHDNRVQKVTQRDRGKGAREYHTALKATDGIYTNEKNVFLALCFADCVPLFFYDPVKSLVGVAHAGWKGTVKQIGREMVKQWTEKEGSNPSDIYAVIGPSISGACYTVDDRVMDAVRALPVSADLAANQTAKAQYQLDLKELNRLILMDSGLASEQISVSGLCTESEPSLFYSHRRDQGKTGRMMSFIGMKEA	not soluble
MSLDNQPLIVIYDEGAALPKDIVTELNGVAPLVLVINSNEHTRERISYFSRFGHVVDGSDIARAVSELAHLNPAGIVTFSERALRLTATLAKHLNLPFHNLETVYRLTDKYKQRVALQEAGIESIRFYLINTVSDWEQAVEQVCLPAVLKPAYGGGSIDTYLIEDPQTGKSLVEKLLSNKQVGFDGGRSLVLEEFLQGRPSLPFGDYVSVESLVVNGEIKHINVTGKMPLSPPFREYGHIWPSVLSDSEQNQIYALTSSAINVLGVNRGITHTELKLTEQGPRIIEVNGRVGGGINEMAKISLNISLLEMAARLALGKMIDEGHHHHHH	not soluble
MGSDKIHHHHHHMFAERLERARKAAGLSMNALANEVGLSANAIKKYEHGTAMPSSSNLLKLAKALDVRTEYFFRPTKVKLEGVEYRKRASTPKKVLDRINGDVLEQAERWQELLELYPDSVKPIPEFTLPNELPEQITSIEQVEDLAIQMRHAWDLGLNPIHDMIDTLEAKGVMIITTDVETDKKFDGLAGKIGSTPVVVISTAQSGDRQRFTLAHELGHLVVHGRLVEALDEEKACNTFAGAFLLPTQTLIEHLGEKRRHIEPRELLMLKHEYGISMLAALFRAGQCGIITPATQKNLFMLFSKNGWRTEEPGKAYPHESTYLHKQLVYRALGEEYIGESKAAELLGMSVSSFHKERKLEVPIQSQLALEAKGAAASN	not soluble
MPWRNKEASSPSSANPPLEALQSPSFRGNMADKLKDPSTLGFLEAAVKISHTSPDIPAEVQMSVKEHIMRHTRLQRQTTEPASSTRHTSFKRHLPRQMHVSSVDYGNELPPAAEQPTSIGRIKPELYKQKSVDGEDAKSEATKSCGKINFSLRYDYETETLIVRILKAFDLPAKDFCGSSDPYVKIYLLPDRKCKLQTRVHRKTLNPTFDENFHFPVPYEELADRKLHLSVFDFDRFSRHDMIGEVILDNLFEASDLSRETSIWKDIQYATSESVDLGEIMFSLCYLPTAGRLTLTVIKCRNLKAMDITGYSDPYVKVSLLCDGRRLKKKKTTIKKNTLNPVYNEAIIFDIPPENMDQVSLLISVMDYDRVGHNEIIGVCRVGITAEGLGRDHWNEMLAYPRKPIAHWHSLVEVKKSFKEGNPRL	not soluble
MAHHHHHHMAVVVVQVGQCGNQLGDELWRQLKLTTNSGALPSPFFTRDRRARCVLVDSEPKVVTAVYERQKDVLRAENVIHGQSGRGNHWALGYYGVNDPLSHRAAENAVVARPFQVVKDQRRCDSHVVRNALRAIHAETRRTDDVMEFEAIIVLHSLVGGTGSGMATRLLEKIRYYFIEPLDSSLTVDECEEAEMMRHDGLDGMMMEKRRASYLVSITVAPQAVGELSTQGLNAALTLHALQENANAVLLLRNDDCIRVQEDSCAGGRPRGRGNTSFSTPSFSSIPSCATFKEINEVFLTMLLPILLYGRSTNAVGELVLKCSPNPREINNILTILPTPQRHYLRFKESVTVSRLYVLRGAMQNMPGVYPSVPIELIHTARSLRNPNLVTSREEVQVPKELLKGLKETAATRRSASVTLLQQMEGVLVLNEARELNAAVLFRLLRSAAMKVKAGAFLSTFEDMGMTAECIQAAIREVATRLSAAEEI	not soluble
